The record followed here is doi:10.1101/2024.01.17.576111.

The target of this assay is PbrSYP71ΔTM-His (lacking TM domain of PbrSYP71) (Pyrus bretschneideri). The experiment in a line: MST.

“F-actin (Pre-formed Actin Filaments, rabbit skeletal muscle actin) (from UniProt P68135 1-377) (natural protein)”: the Kd was 185 nM.

The term Kd denotes the constant that tells how readily two partners part at equilibrium. Read a low Kd as tighter binding.
